# In patent US20040037843A1:
# Ends that are not written are not given here.
# Target: HLA-A*0206 (human)
# Experiment: competition with 125I-labelled standard peptide for purified HLA, gel filtration
# Settings: remark: other sources report otherwise
row,Binder,relative binding ratio
1,"GAAPLILSRIV [PSA position 12, 11 amino acids]",0.0006

# Target: HLA-A*0203 (human)
# Experiment: as above
# Settings: remark: other sources report otherwise
row,Binder,relative binding ratio
1,"GAAPLILSRIV [PSA position 12, 11 amino acids]",0.011

# Same assay, conditions: remark: other sources report otherwise; scale: ratio to standard peptide
row,Binder,relative binding ratio
1,"LTPKKLQCVDL [PSA peptide, position 162, 11 amino acids]",0.0074

# Target: HLA-A*0202 (human)
# Experiment: as above
# Settings: remark: other sources report otherwise
row,Binder,relative binding ratio
1,"GAAPLILSRIV [PSA position 12, 11 amino acids]",0.022

# Same assay, conditions: remark: other sources report otherwise; scale: ratio to standard peptide
row,Binder,relative binding ratio
1,"LTPKKLQCVDL [PSA peptide, position 162, 11 amino acids]",0.0087

# Target: HLA-A*0203 (human)
# Experiment: not given
# Settings: remark: other sources report otherwise
row,Binder,IC50
1,FLRPRSLQCV [peptide 1419.07 (HuK2.165)],4.2 nM
2,HLLSNDMCARA (not fully specified) [peptide 1419.15 (HuK2.177)],250 nM

# Target: HLA-A*0201 (human)
# Experiment: not given
# Settings: remark: other sources report otherwise
row,Binder,IC50
1,DLMLLRLSEPV [peptide 63.0109 (HuK2.120.V11)],50 nM
2,ALSVGCTGV [peptide 1418.15 (HuK2.9.V9)],24 nM

# Target: HLA-A*0201 (human)
# Experiment: not given
# Settings: remark: other sources report otherwise
# Remark: another data set of the same source
row,Binder,IC50
1,SLHLLSNDMCA [HuK2.175],< 200 nM
2,RMMNDQLMFL [PSM.662],< 200 nM
3,LVLAGGFFL [PSM.26],< 200 nM
4,MLLRLSEPA [PSA.118 (9-mer …)],< 200 nM
5,FLNESYKHEQV [PAP.92],< 200 nM
6,ALDVYNGLL [PAP.299],< 200 nM
7,ALGTTCYA [PSA.143],< 200 nM
8,LMLLRLSEPA [PSA.117],< 200 nM
9,GLPSIPVHPI [PSM.288],< 200 nM
10,ALFDIESKV [PSM.711],< 200 nM
11,LLFFWLDRSV [PAP.21],< 200 nM
12,IMYSAHDTTV [PAP.284],< 200 nM
13,ILLWQPIPV [PAP.135],< 200 nM
14,QLMFLERAFI [PSM.667],< 200 nM
15,VLAKELKFV [PAP.30],< 200 nM
16,LLQERGVAYI [PSM.441],< 200 nM
17,GMPEGDLVYV [PSM.168],< 200 nM
18,KLQCVDLHV [PSA.166],< 200 nM
19,FLTPKKLQCV [PSA.161],< 200 nM
20,FLRPRSLQCV [HuK2.165],< 200 nM
21,VLAGGFFLL [PSM.27],< 200 nM

# Target: HLA-A*2401 (human)
# Experiment: competition with 125I-labelled probe peptide for purified HLA, gel filtration
# Settings: not given
row,Binder,relative binding ratio (IC50 of standard peptide / IC50 of test peptide)
1,"AMTNLAALF [PAP position 116, 9 amino acids]",0.015
2,"GWGSIEPEEF [Kallikrein position 156, 10 amino acids]",0.0001
3,"DFIATLGKL [PAP position 186, 9 amino acids]",0.0002
4,"FFWLDRSVL [PAP position 23, 9 amino acids]",0.0017
5,"EYIRKRYRKF [PAP position 83, 10 amino acids]",0.0067
6,"IWSKVYDPL [PAP position 205, 9 amino acids]",0.0024
7,"HYRKWIKDTI [Kallikrein position 248, 10 amino acids]",0.055
8,"GFLFLLFFWL [PAP position 17, 10 amino acids]",0.0007
9,"CYASGWGSI [Kallikrein position 152, 9 amino acids]",0.17
10,"GFLFLLFFW [PAP position 17, 9 amino acids]",0.0016

# Target: HLA-A*2401 (purified HLA class I molecule) (human)
# Experiment: competition with 125I-labelled standard peptide for purified HLA, gel filtration
# Settings: not given
row,Binder,relative binding ratio (IC50 of standard peptide / IC50 of test peptide)
1,"VFRHGDRSPI [PAP position 41, 10 amino acids]",0.0005
2,"RFQELESETL [PAP position 163, 10 amino acids]",0.0001
3,"RFAELVGPVI [PAP position 355, 10 amino acids]",0.0037
4,"SYKHEQVYI [PAP position 96, 9 amino acids]",0.26
5,"PYASCHLTEL [PAP position 309, 10 amino acids]",0.024
6,"SWPQGFGQL [PAP position 62, 9 amino acids]",0.0013
7,"PYKDFIATL [PAP position 183, 9 amino acids]",0.11

# Target: HLA-A*0206 (human)
# Experiment: inhibition of 125I probe peptide binding to purified HLA
# Settings: remark: other sources report otherwise
Binder,IC50,relative binding ratio
LLLARAASV [Peptide 60.0201 … (PAP.6.V9)],95 nM,–
AASLSLGFLFL [Peptide 63.0137 … (PAP.11)],95 nM,–
LLARAASLSL [Peptide 20.0203 … (PAP.7)],9250 nM,–
"DLPTQEPALGT [PSA position 136, 11 amino acids]",–,0.0001
LLFFWLDRSVL [Peptide 63.0139 … (PAP.21)],822 nM,–
"CAGRWTGGKST [PSA position 194, 11 amino acids]",–,0.0002
"CALPERPSLYT [PSA position 230, 11 amino acids]",–,0.0016
FLNESYKHEQV [Peptide 1419.55 … (PAP.92)],381 nM,–
"CARAYSEKVT [Kallikrein position 184, 10 amino acids]",–,0.003
LLARAASLSV [Peptide 63.0031 … (PAP.7.V10)],378 nM,–

# Target: HLA-A*0203 (human)
# Experiment: as above
# Settings: remark: other sources report otherwise
Binder,IC50,relative binding ratio
FLFLLFFWV [Peptide 60.0203 … (PAP.18.V9)],625 nM,–
"DLPTQEPALGT [PSA position 136, 11 amino acids]",–,0.01
"CAGRWTGGKST [PSA position 194, 11 amino acids]",–,0.025
"CALPERPSLYT [PSA position 230, 11 amino acids]",–,0.0071
"CARAYSEKVT [Kallikrein position 184, 10 amino acids]",–,0.02

# Target: HLA-A*0201 (human)
# Experiment: as above
# Settings: remark: other sources report otherwise
Binder,IC50,relative binding ratio
SLSLGFLFLL [Peptide 1419.51 … (PAP.13)],40 nM,–
LLLARAASL [Peptide 20.0044 … (PAP.6)],208 nM,–
AASLSLGFLFL [Peptide 63.0137 … (PAP.11)],227 nM,–
LLARAASLSL [Peptide 20.0203 … (PAP.7)],500 nM,–
"DLPTQEPALGT [PSA position 136, 11 amino acids]",–,0.0041
"DLPTQEPAL [PSA position 136, 9 amino acids]",–,0.0003
"CAGRWTGGKST [PSA position 194, 11 amino acids]",–,0.0013
VLAKELKFVTL [Peptide 63.0142 … (PAP.30)],6.9 nM,–
"CALPERPSLYT [PSA position 230, 11 amino acids]",–,0.0008
"CARAYSEKVT [Kallikrein position 184, 10 amino acids]",–,0.0074

# Target: HLA-A*0202 (human)
# Experiment: as above
# Settings: remark: other sources report otherwise
Binder,IC50,relative binding ratio
FLFLLFFWV [Peptide 60.0203 … (PAP.18.V9)],307 nM,–
LLFFWLDRSV [Peptide 1097.09 … (PAP.21)],0.6 nM,–
LLARAASLSL [Peptide 20.0203 … (PAP.7)],5.2 nM,–
"DLPTQEPALGT [PSA position 136, 11 amino acids]",–,0.018
"CAGRWTGGKST [PSA position 194, 11 amino acids]",–,0.037
VLAKELKFVTL [Peptide 63.0142 … (PAP.30)],8.1 nM,–
LLARAASLSV [Peptide 63.0031 … (PAP.7.V10)],10 nM,–
